Measurements taken from IntAct's records for PubMed 36931259.

B1: 14-3-3 protein sigma (Homo sapiens), P31947 (parent)
chain: MERASLIQKAKLAEQAERYEDMAAFMKGAVEKGEELSCEERNLLSVAYKNVVGGQRAAWRVLSSIEQKSNEEGSEEKGPEVREYREKVETELQGVCDTVLGLLDSHLIKEAGDAESRVFYLKMKGDYYRYLAEVATGDDKKRIIDSARSAYQEAMDISKKEMPPTNPIRLGLALNFSVFHYEIANSPEEAISLAKTTFDEAMADLHTLSEDSYKDSTLIMQLLRDNLTLWTADNAGEEGGEAPQEPQS
partner: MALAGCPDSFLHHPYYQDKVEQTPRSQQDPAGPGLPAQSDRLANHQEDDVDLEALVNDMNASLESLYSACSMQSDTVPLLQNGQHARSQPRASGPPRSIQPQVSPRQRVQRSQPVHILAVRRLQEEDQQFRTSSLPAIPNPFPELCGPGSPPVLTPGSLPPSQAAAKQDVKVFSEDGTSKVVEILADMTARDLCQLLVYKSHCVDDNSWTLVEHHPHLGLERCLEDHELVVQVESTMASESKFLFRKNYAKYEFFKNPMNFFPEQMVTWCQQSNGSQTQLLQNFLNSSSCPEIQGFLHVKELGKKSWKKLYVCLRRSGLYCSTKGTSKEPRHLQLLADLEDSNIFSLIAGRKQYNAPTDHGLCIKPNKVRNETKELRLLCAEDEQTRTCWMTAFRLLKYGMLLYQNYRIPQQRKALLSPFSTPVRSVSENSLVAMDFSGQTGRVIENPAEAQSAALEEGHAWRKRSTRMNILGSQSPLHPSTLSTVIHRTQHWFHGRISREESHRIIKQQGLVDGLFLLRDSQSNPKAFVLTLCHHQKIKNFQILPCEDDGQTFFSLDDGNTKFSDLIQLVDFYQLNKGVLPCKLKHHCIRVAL
B2: 14-3-3 protein sigma (Homo sapiens), P31947 (parent)
chain: B1 chain
partner: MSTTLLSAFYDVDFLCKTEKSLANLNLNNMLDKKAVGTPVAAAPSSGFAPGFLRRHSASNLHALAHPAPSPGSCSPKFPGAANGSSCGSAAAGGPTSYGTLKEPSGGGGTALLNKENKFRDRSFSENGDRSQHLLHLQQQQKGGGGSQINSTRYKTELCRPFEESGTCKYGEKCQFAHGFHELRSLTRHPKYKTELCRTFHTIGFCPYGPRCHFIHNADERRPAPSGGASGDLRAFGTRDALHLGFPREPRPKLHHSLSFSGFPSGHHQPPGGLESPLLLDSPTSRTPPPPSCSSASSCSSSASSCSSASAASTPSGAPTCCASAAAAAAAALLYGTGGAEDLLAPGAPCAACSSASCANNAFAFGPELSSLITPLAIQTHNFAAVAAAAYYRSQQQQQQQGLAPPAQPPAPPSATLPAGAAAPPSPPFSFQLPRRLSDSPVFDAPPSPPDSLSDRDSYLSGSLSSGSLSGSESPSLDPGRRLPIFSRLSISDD
B3: 14-3-3 protein sigma (Homo sapiens), P31947 (parent)
chain: B1 chain
partner: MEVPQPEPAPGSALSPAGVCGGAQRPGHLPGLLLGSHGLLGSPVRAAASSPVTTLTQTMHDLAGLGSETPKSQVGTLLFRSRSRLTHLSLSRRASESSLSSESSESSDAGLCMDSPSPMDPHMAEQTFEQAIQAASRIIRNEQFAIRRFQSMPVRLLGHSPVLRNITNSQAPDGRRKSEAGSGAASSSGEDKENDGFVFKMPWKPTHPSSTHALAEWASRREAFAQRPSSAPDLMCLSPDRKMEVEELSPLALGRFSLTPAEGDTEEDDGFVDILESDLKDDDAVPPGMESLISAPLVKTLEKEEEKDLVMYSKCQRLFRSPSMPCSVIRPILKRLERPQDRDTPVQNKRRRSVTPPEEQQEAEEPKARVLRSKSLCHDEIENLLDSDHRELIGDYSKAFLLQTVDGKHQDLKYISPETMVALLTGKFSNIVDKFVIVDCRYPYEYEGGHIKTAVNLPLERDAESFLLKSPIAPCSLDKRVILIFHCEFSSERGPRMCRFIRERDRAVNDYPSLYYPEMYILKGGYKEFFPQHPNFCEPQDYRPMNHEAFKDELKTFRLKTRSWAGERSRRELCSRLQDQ
B4: Kinesin light chain 3 (Homo sapiens), Q6P597 (parent)
chain: MSVQVAAPGSAGLGPERLSPEELVRQTRQVVQGLEALRAEHHGLAGHLAEALAGQGPAAGLEMLEEKQQVVSHSLEAIELGLGEAQVLLALSAHVGALEAEKQRLRSQARRLAQENVWLREELEETQRRLRASEESVAQLEEEKRHLEFLGQLRQYDPPAESQQSESPPRRDSLASLFPSEEEERKGPEAAGAAAAQQGGYEIPARLRTLHNLVIQYAGQGRYEVAVPLCRQALEDLERSSGHCHPDVATMLNILALVYRDQNKYKEATDLLHDALQIREQTLGPEHPAVAATLNNLAVLYGKRGRYREAEPLCQRALEIREKVLGADHPDVAKQLNNLALLCQNQGKFEDVERHYARALSIYEALGGPHDPNVAKTKNNLASAYLKQNKYQQAEELYKEILHKEDLPAPLGAPNTGTAGDAEQALRRSSSLSKIRESIRRGSEKLVSRLRGEAAAGAAGMKRAMSLNTLNVDAPRAPGTQFPSWHLDKAPRTLSASTQDLSPH
partner: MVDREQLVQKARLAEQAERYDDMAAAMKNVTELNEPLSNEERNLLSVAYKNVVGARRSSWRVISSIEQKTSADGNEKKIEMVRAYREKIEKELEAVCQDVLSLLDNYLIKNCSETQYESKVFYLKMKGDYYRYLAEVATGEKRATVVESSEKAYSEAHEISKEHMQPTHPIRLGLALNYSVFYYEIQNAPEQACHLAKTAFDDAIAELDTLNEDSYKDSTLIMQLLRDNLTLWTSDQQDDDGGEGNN
B5: Protein Smaug homolog 1 (Homo sapiens), Q9UPU9 (parent)
chain: MMFRDQVGVLAGWFKGWNECEQTVALLSLLKRVSQTQARFLQLCLEHSLADCAELHVLEREANSPGIINQWQQESKDKVISLLLTHLPLLKPGNLDAKVEYMKLLPKILAHSIEHNQHIEESRQLLSYALIHPATSLEDRSALAMWLNHLEDRTSTSFGGQNRGRSDSVDYGQTHYYHQRQNSDDKLNGWQNSRDSGICINASNWQDKSMGCENGHVPLYSSSSVPTTINTIGTSTSTILSGQAHHSPLKRSVSLTPPMNVPNQPLGHGWMSHEDLRARGPQCLPSDHAPLSPQSSVASSGSGGSEHLEDQTTARNTFQEEGSGMKDVPAWLKSLRLHKYAALFSQMTYEEMMALTECQLEAQNVTKGARHKIVISIQKLKERQNLLKSLERDIIEGGSLRIPLQELHQMILTPIKAYSSPSTTPEARRREPQAPRQPSLMGPESQSPDCKDGAAATGATATPSAGASGGLQPHQLSSCDGELAVAPLPEGDLPGQFTRVMGKVCTQLLVSRPDEENISSYLQLIDKCLIHEAFTETQKKRLLSWKQQVQKLFRSFPRKTLLDISGYRQQRNRGFGQSNSLPTAGSVGGGMGRRNPRQYQIPSRNVPSARLGLLGTSGFVSSNQRNTTATPTIMKQGRQNLWFANPGGSNSMPSRTHSSVQRTRSLPVHTSPQNMLMFQQPEFQLPVTEPDINNRLESLCLSMTEHALGDGVDRTSTI
partner: B4 partner

Variants of: B1
Details: with grb10_human GRB10, Q13322

Variant | effect of a mutation on the interaction
MERASLIQKAKLAEQAERYEDMAAFMKGAVEKGEELSCEERNLLSVAYENVVGGQEAAWRVLSSIEQKSNEEGSEEKGPEVREYREKVETELQGVCDTVLGLLDSHLIKEAGDAESRVFYLKMKGDYYRYLAEVATGDDKKRIIDSARSAYQEAMDISKKEMPPTNPIRLGLALNFSDFHYEIANSPEEAISLAKTTFDEAMADLHTLSEDSYKDSTLIMQLLRDNLTLWTADNAGEEGGEAPQEPQS [K49E;R56E;V178D] | decreasing interaction strength

Variants of: B2
Details: with tisd_human ZFP36L2, P47974

Variant | effect of a mutation on the interaction
MERASLIQKAKLAEQAERYEDMAAFMKGAVEKGEELSCEERNLLSVAYENVVGGQEAAWRVLSSIEQKSNEEGSEEKGPEVREYREKVETELQGVCDTVLGLLDSHLIKEAGDAESRVFYLKMKGDYYRYLAEVATGDDKKRIIDSARSAYQEAMDISKKEMPPTNPIRLGLALNFSDFHYEIANSPEEAISLAKTTFDEAMADLHTLSEDSYKDSTLIMQLLRDNLTLWTADNAGEEGGEAPQEPQS [K49E;R56E;V178D] | decreasing interaction strength

Variants of: B3
Details: with mpip2_human CDC25B

Variant | effect of a mutation on the interaction
MERASLIQKAKLAEQAERYEDMAAFMKGAVEKGEELSCEERNLLSVAYENVVGGQEAAWRVLSSIEQKSNEEGSEEKGPEVREYREKVETELQGVCDTVLGLLDSHLIKEAGDAESRVFYLKMKGDYYRYLAEVATGDDKKRIIDSARSAYQEAMDISKKEMPPTNPIRLGLALNFSDFHYEIANSPEEAISLAKTTFDEAMADLHTLSEDSYKDSTLIMQLLRDNLTLWTADNAGEEGGEAPQEPQS [K49E;R56E;V178D] | decreasing interaction strength

Variants of: B4
Details: with 1433g_human YWHAG

Variant | effect of a mutation on the interaction
S431A;S466A;S497A | disrupting interaction strength

Variants of: B5
Details: with 1433g_human YWHAG

Variant | effect of a mutation on the interaction
S168A;S183A;S254A;S580A;S665A;T717A | decreasing interaction strength
